Results as given in the RNAGym collection of RNA variant scans (doi:10.7554/elife.80360).

B1: Hairpin Ribozyme (parent)
chain: GUCCUCUUUCACGUGCGCGUGAAAGAGAGAAGUGAACCAGAGAAACACACGUUGUGGUAUAUUACCUGGUA

Variants of: B1
Test: self-cleavage, relative activity (ratio to wild type); higher = more cleavage; co-transcriptional

Variant	self-cleavage
C66U U67G	0.0789
G19C U20C	0.809
C3A U62C	0.2
G34C C48U	0.572
A30U U63C	0.0881
C18G G40U	0.187
G40U C66G	0.11
C3U U62A	0.158
A22U A71U	0.747
C18A A28C	0.492
U8G G17U	0.651
G32A C38U	0.0584
G40U U67A	0.159
C50A A71C	0.816
G54C G68U	0.158
A43U U58C	0.189
U53A G57C	0.145
U58G A61G	0.111
C16U A45G	0.135
A28U C37U	0.376
A26G G51A	0.938
C18A U67A	0.191
G54A U70C	0.244
G21A U58A	0.533

Variant	self-cleavage
G32A G51A	0.156
U14G A64U	0.07
U2C G56A	0.177
U7C G25C	0.251
G29C G69A	0.0986
A35U G56C	0.124
A22G A64C	0.22
U5A U55A	0.163
C37G G54C	0.149
G42U U52G	0.135
U58C C65G	0.255
U7G A22C	0.515
G42U C65A	0.142
A39G G57C	0.105
U8G C66G	0.162
U14A U33G	0.207
G42U A49U	0.24
A61C A64G	0.185
G27C A39G	0.0932
C12A A41C	1.05
C18U A41U	1.21
U63C C66G	0.244
C48U G68C	0.247
C66G U67A	0.17

Variant	self-cleavage
U5A G68C	0.11
C16G U70G	0.508
A28C C37A	0.166
C16G U60C	1.06
C6U C10A	0.55
C10U G13C	0.471
U9A C37A	0.193
U9G A71G	0.779
G13C A41U	0.819
G13C A41G	0.498
C18A A24G	0.95
A22G U52G	0.692
A44C U53G	0.0885
C16U G17A	1.19
C12A A31C	0.117
U62A U70C	0.219
C3U U63G	0.12
A31G A44C	0.188
A49G G68A	0.147
A59U U63G	0.218
C37G A64U	0.192
G19A A30U	0.14
C3A A71U	0.517
C12A U20A	0.865

Variant	self-cleavage
G15A C50G	0.219
A35G U53C	0.928
A28G A39G	0.357
C10U A22C	0.631
C4U A59U	0.113
A11C C48A	0.0917
G40C G51A	0.115
G32U C37G	0.0126
G25U A35C	0.691
U2G C46U	0.11
A30C A31C	0.159
U7A A11C	0.636
A26C G29C	0.136
G1A A49G	0.233
U20G U63A	0.171
A11C A26U	0.482
C16G G17A	0.894
A30G U58A	0.0366
G1U G13U	0.156
U20G U58G	0.835
U7A C18A	1.12
U33C U52A	0.162
G40C A59U	0.198
A23C C37U	0.444

Variant	self-cleavage
A11U A30C	0.236
A28G C37A	0.504
G57A C65G	0.291
C37U A61C	0.146
G1A C16G	0.169
U7C U62G	0.179
C37G A39C	0.163
C3A U53G	0.613
A35C G57U	0.318
G21A A44U	0.215
U2C G69A	0.0698
U20G G25A	0.469
G17A U62C	0.166
C50U A71C	0.925
C12G G34A	1.03
A24C A59G	0.0535
C3U G54C	0.211
G13C G21C	0.587
G19C A22C	0.702
G27U U60G	0.0793
A28U A64C	0.278
G1C U62G	0.4
G19U G34A	1.19
U52A	1.03

Variant	self-cleavage
G27A G68C	0.215
A43U U63G	0.307
G13A A26C	0.556
U63G G68A	0.281
G15U G17U	1.06
G15A C18A	1.09
G34A C37A	0.534
G13C G57C	0.125
G17U A64U	0.16
G25C A28C	0.214
G21U A28C	0.366
G27U U62C	0.191
C10A C50G	0.352
G19U G29C	0.0899
U20C G34U	1.32
U2C C38U	0.147
C10A G13U	0.425
A26C A30U	0.165
A24U C46A	0.11
U8A A47C	0.295
A24G G42U	0.289
A31C A44C	0.128
A44U U53C	0.0977
C37U U67C	0.142

Variant	self-cleavage
C37U U67G	0.234
C12A G68U	0.251
A47G A71U	0.221
A22G A61G	0.285
U2C U33A	0.0916
U52C C66U	0.626
A39U A59U	0.184
G21A U60G	0.533
U7C C37G	0.273
U8G U14G	0.542
C4G A47G	0.168
A28G U67A	0.31
A35U U58C	0.798
C46G A64U	0.185
C4G G27A	0.325
A45C A59C	0.358
C12G A45G	0.0996
G40U A61C	0.0593
A43U U62G	0.0478
G34A G57A	0.207
G25A A44U	0.179
G15U G19A	0.968
A45C G69C	0.193
